In this test the target is Mu-opioid receptor, P35372.
Mu-opioid receptor, P35372, sequence (P35372 whole entry): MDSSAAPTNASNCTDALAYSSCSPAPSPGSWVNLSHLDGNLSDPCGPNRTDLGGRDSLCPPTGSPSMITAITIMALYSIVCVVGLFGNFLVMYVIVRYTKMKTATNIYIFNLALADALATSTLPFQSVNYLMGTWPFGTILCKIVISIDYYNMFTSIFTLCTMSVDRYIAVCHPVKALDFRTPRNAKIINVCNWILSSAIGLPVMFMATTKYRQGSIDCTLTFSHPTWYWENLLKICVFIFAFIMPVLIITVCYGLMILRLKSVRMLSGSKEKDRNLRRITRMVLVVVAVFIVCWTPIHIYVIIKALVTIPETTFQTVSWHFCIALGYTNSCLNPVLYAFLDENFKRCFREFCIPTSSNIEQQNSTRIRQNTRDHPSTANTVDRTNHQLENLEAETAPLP

B1: Dyn1-7 (peptide)
chain: YGGFLRR
modifications: not checked
For the molecule B1, the Activity (EC50, nM) for cAMP in MOP receptor over-expressing HEK293 cells came to 3740 nM.
